Measured values: patent publication US7264809B1, “Methods of inhibiting platelet activation and recruitment” (Immunex Corporation, priority 1998, dated 2007)

Key:
[1] = TLC assay for ADPase activity; format: biochemical
Protocol: (§1) Following growth in selective medium, CM from CHO cell cultures was analyzed for ATPase and ADPase activities. ADPase assays (Marcus et al., J. Clin. Invest. 88:1690, 1991) were primarily used in determining enzyme kinetics and pharmacokinetics. Test samples were incubated with 50 μM [^14C] ADP (NEN Life Science Products) in assay buffer (15 mM Tris, 134 mM NaCl, 5 mM glucose, pH 7.4, containing 10 μM Ap5A (P^1,P^5-di[adenosine-5′]pentaphosphate, 1 mM ouabain, 10 μM dipyridamole, and 3 mM CaCl2) in a total volume of 50 μl (5 min, 37° C.). Reactions were stopped by placement on ice and addition of 10 μl “stop solution” (160 mM disodium EDTA, pH 7.0, 17 mM ADP, 0.15 M NaCl) to block further metabolism of ADP. Nucleotides, nucleosides, and bases were separated by TLC using isobutanol/1-pentanol/ethylene glycol monoethyl ether/NH4OH/H2O (90:60:180:90:120). Radioactivity was quantified by radio TLC scanning (RTLC multiscanner; Packard, Meriden, Conn.). Results were calculated as averages of duplicate to quadruplicate measurements after subtraction of buffer blanks (consistently <1% of total radioactivity). Data were expressed as percentage of ADP metabolized or as pmol ADP metabolized per minute per μl CM. A unit of activity is the quantity of enzyme which will degrade 1 μmol of ADP in 1 min at 37° C. Identical assays were performed using ATP as a substrate in order to examine the kinetics of the ATPase activity of CD39.
(§2) Using the TLC assay system described in Example 12B, the ADPase activity of the membrane-bound HUVEC ecto-ADPase was determined at different pHs in buffers containing 100 mM bis-trispropane (Sigma, St. Louis, Mo.). […] Kinetic constants for CD39 metabolism of ATP and ADP were determined by measuring the initial rates of reaction as analyzed in the TLC system.

[2] = TLC assay for ATPase activity; format: biochemical
Protocol: as §1, §2

[3] = design: species or system Balb/c mice; conditions: mouse, in vivo, iv
Protocol: At various times after injection (5, 10, 30 min, 1, 2, 4, 8, 24 h), pairs of mice were bled by cardiac puncture and euthanized. Serum was prepared from each blood sample and frozen until assay. […] The data were fit using […], Monterey, Calif.). The best fit was derived using double exponential decay. Where indicated, specificity of enzyme activity was determined by incubating serum samples with anti-CD39 mAb-coated beads to remove CD39 prior to testing for ATPase activity.

[4] = Bleeding time and tolerability in pigs; format: in vivo, Yorkshire-Hampshire pigs
Protocol: Aspirin was administered orally on a daily basis. Placebo controls consisted of aspirin. Saline controls and solCD39 were administered as a single bolus. Time points were measured following this administration. Blood samples were obtained via an external jugular vein catheter. […] ADP-induced platelet aggregation was measured at specific time intervals following administration. The concentration of CD39 in serum as a function of time was measured using an ELISA assay.

[5] = test system: injured coronary artery segments; experiment: Percutaneous transluminal coronary angioplasty (balloon injury) study
Description: Porcine platelets and fibrinogen were labeled with ^111Indium and ^125Iodine respectively for infusion into pigs. […] Oral ASA was given to all pigs for at least three day prior to the coronary angioplasty procedure, and heparin (100 U/kg) was given at the time of the angioplasty. One to three days prior to the angioplasty an external jugular line was inserted to administer the labeled platelets and fibrin, CD39 or saline, and to facilitate blood draws. Labeled platelets and fibrinogen were given approximately 18 hours prior to balloon injury. Coronary arteries were injured using an oversize balloon. A coronary guide catheter was first advanced into the ascending aorta. An oversized balloon was then advanced into a coronary vessel and inflated at 6 to 8 atmospheres for a total of thirty seconds. The balloon was then deflated and withdrawn. The average ratio of balloon size to vessel size was 1.32 for the placebo group and 1.29 for the CD39 group.
Platelet aggregation and bleeding time were measured 30 minutes after administration. […] Moreover, no bleeding was noted during PTCA or after sheath removal and there was no significant difference in hematocrit or platelet counts between the groups.
After the radioactivity decayed, toluidine-blue stained injured coronary artery segments were examined histologically, in order to further characterize the extent of thrombus formation. A blinded observer qualitatively evaluated the degree of histologic injury in the coronary segments by assessing, on a scale of 1-4 with 4 being the most severe injury, the severity of medial and internal elastic lamina tear, medial separation, and hemorrhage. A composite injury score was obtained by totaling, the three individual scores. The medial injury scores for the placebo and CD39 groups were 2.5 and 2.2 respectively; medial separation scores for the placebo and CD39 groups were 2.0 and 1.6 respectively; the degree of hemorrhage for the placebo and CD39 groups were 2.3 and 2.5 respectively. The composite injury scores for the placebo and CD39 groups were […] and 6.2 respectively. These in vivo results correlate well with results, reported herein, obtained in vitro and ex vivo.

mouse platelets = experiment: Reversal of ADP-induced aggregation of mouse platelets in vitro; format: cell-based; conditions: 5 μM ADP; soluble CD39 2.5 or 1.25 μg/ml
Protocol: ADP (5 μM) was added to mouse platelets in vitro to induce an aggregation response. Soluble CD39 (2.5 μg/ml or 1.25 μg/ml) was added at the peak of the aggregation response.

[6] = Mouse lung ischemia-reperfusion survival model; format: in vivo, C57BL/6 mice; conditions: 8 mg/kg i.v.
Protocol: C57BL/6 mice were anesthetized and ventilated, and their thoraces were opened to surgically expose both pulmonary hila. Either physiological saline or soluble CD39 (8 mg/kg) was administered intravenously, after which the left pulmonary hilum was cross-clamped for one hour. The cross-clamp was removed for three hours of reperfusion, and then a cross-clamp was applied to the right hilum for a thirty minute observation period. This latter maneuver effectively removed the normal lung from circulation, so that the mouse must survive on the function of the post-ischemic left lung. The results are shown, in the form of a Kaplan-Meier survival plot, in FIG. 23.

[7] = 670 μg/kg i.v. plus heparin and ASA, 24 hours after balloon injury

B1: solCD39: recombinant soluble human CD39, untagged: 12 mature huIL2 residues, three amino acid linker, sol CD39 (SEQ ID NO:7) (protein)
chain: MALWIDRMQLLSCIALSLALVTNSAPTSSSTKKTQLTSSTQNKALPENVKYGIVLDAGSSHTSLYIYKWPAEKENDTGVVHQVEECRVKGPGISKFVQKVNEIGIYLTDCMERAREVIPRSQHQETPVYLGATAGMRLLRMESEELADRVLDVVERSLSNYPFDFQGARIITGQEEGAYGWITINYLLGKFSQKTRWFSIVPYETNNQETFGALDLGGASTQVTFVPQNQTIESPDNALQFRLYGKDYNVYTHSFLCYGKDQALWQKLAKDIQVASNEILRDPCFHPGYKKVVNVSDLYKTPCTKRFEMTLPFQQFEIQGIGNYQQCHQSILELFNTSYCPYSQCAFNGIFLPPLQGDFGAFSAFYFVMKFLNLTSEKVSQEKVTEMMKKFCAQPWEEIKTSYAGVKEKYLSEYCFSGTYILSLLLQGYHFTADSWEHIHFIGKIQGSDAGWTLGYMLNLTNMIPAEQPLSTPLSHST
- Vmax for ADP ([1]; 2×10^−9 M solCD39): 72 pmol/min
- kcat (ADP) ([1]; 2×10^−9 M solCD39): 12 s⁻¹
- specific activity for ADP ([1]; purified recombinant solCD39): 11 U/mg
- Vmax for ATP ([2]; 2×10^−9 M solCD39): 26 pmol/min
- kcat (ATP) ([2]; 2×10^−9 M solCD39): 4.33 s⁻¹
- specific activity for ATP ([2]; purified recombinant solCD39): 4 U/mg
- apyrase activity cleared from the circulation during distribution phase [3]: 55-65%
- t1/2α (distribution phase), ADPase assay ([3]; 50 ug): 43 min
- t1/2α (distribution phase), ATPase assay ([3]; 50 ug): 59 min
- anemia or thrombocytopenia ([4]; pig, in vivo): did not induce
- tolerability ([4]; pigs, 72-670 μg/kg bolus): well tolerated
- Fibrin Deposition Ratio [5, 7]: 0.62 ± 0.10
- Platelet Deposition Ratio [5, 7]: 1.25 ± 0.19
- Bleeding Time ([5]; 30 minutes after administration): 7.00 ± 0.81
- medial injury score ([5]; histology, scale of 1-4): 2.2
- medial separation score ([5]; histology, scale of 1-4): 1.6
- degree of hemorrhage ([5]; pig, in vivo): 2.5
- tolerability ([5]; pigs, PTCA): well tolerated
- composite injury score ([5]; total of three scores): 6.2
- aggregation response when added at the peak (mouse platelets): immediately reversed
- survival at thirty minutes on post-ischemic lung [6]: survived
